These results are taken from paper PMC8565321.

The experiment deals with BLM (UniProt P54132). Put plainly: co-IP and western blot. The following applies: reference: wild type USP37; sites S114. For orientation: In western blotting, separated proteins are transferred to a membrane and probed.

For USP37 (from UniProt Q86T82) S114A, the “binding against the reference” value is “weaker”.
